Tests used:
Assay in all cases: IEDB peptide-MHC binding, purified MHC/direct/fluorescence; filed as Kd, often an IC50 or EC50 that approximates it; ≥ and ≤ were set here for values at or beyond the usual limits of such assays
[1] = target: HLA-A*02:01
[2] = target: HLA-A*69:01
[3] = target: HLA-B*18:01
[4] = target: HLA-B*44:02
[5] = target: HLA-B*46:01
[6] = target: HLA-B*58:01
[7] = target: HLA-A*11:01
[8] = target: HLA-A*03:01
[9] = target: HLA-B*08:01
[10] = target: HLA-A*01:01
[11] = target: HLA-B*27:05
[12] = target: HLA-A*26:01
[13] = target: HLA-B*07:02
[14] = target: HLA-A*24:02
[15] = target: HLA-B*15:01
[16] = target: HLA-B*40:01
[17] = target: HLA-B*15:09; conditions: source organism: Influenza A virus (A/Taiwan/2/2006(H1N1))
[18] = target: HLA-A*31:01
[19] = source organism: Influenza A virus (A/Viet Nam/HN/2004(H5N1))
[20] = source organism: Influenza A virus (A/Puerto Rico/8/34/Mount Sinai(H1N1))
[21] = source organism: Influenza A virus (A/Hong Kong/507/97(H5N1))
[22] = source organism: Influenza A virus (A/swine/Korea/S190/2004(H9N2))

Which Kd [1, 19] does the source give for FRNQVKIRR here?
Its Kd is no less than 20 µM.

What about the Kd [2, 19] of the same sequence?
Its Kd is no less than 20 µM.

What about the Kd [3, 19] of the same sequence?
The Kd was no less than 20 µM.

What about the Kd [4, 19] of the same sequence?
The Kd was no less than 20 µM.

What about the Kd [5, 19] of the same sequence?
The Kd was no less than 20 µM.

And the Kd [6, 19]?
Its Kd is no less than 20 µM.

And the Kd [7, 19]?
The Kd was no less than 20 µM.

What about the Kd [8, 19] of the same sequence?
The Kd was no less than 20 µM.

What about the Kd [9, 19] of the same sequence?
Its Kd is no less than 20 µM.

And the Kd [10, 19]?
The Kd was no less than 20 µM.

And the Kd [11, 20]?
The Kd was 0.079 µM.

And the Kd ([12]; source organism: Influenza A virus(A/swine/Shandong/fNY/2003(H9N2)))?
Its Kd is no less than 20 µM.

And the Kd [13, 19]?
The Kd was no less than 20 µM.

What about the Kd [14, 19] of the same sequence?
The Kd was no less than 20 µM.

What about the Kd [15, 19] of the same sequence?
Its Kd is no less than 20 µM.

What about the Kd [16, 19] of the same sequence?
Its Kd is no less than 20 µM.

Which Kd [1, 21] does the source give for GTSKIKMKW here?
The Kd was no less than 20 µM.

What about the Kd [2, 21] of the same sequence?
Its Kd is no less than 20 µM.

What about the Kd [4, 21] of the same sequence?
The Kd was no less than 20 µM.

And the Kd [17]?
Its Kd is no less than 20 µM.

And the Kd [5, 21]?
The Kd was no less than 20 µM.

What about the Kd [6, 21] of the same sequence?
The Kd was 0.18 µM.

And the Kd [7, 21]?
Its Kd is no less than 20 µM.

What about the Kd [8, 21] of the same sequence?
The Kd was no less than 20 µM.

What about the Kd [9, 21] of the same sequence?
The Kd was no less than 20 µM.

What about the Kd [10, 21] of the same sequence?
Its Kd is no less than 20 µM.

What about the Kd [11, 21] of the same sequence?
The Kd was no less than 20 µM.

What about the Kd ([12]; source organism: Influenza A virus (A/Taiwan/2/2006(H1N1))) of the same sequence?
Its Kd is no less than 20 µM.

What about the Kd [13, 21] of the same sequence?
The Kd was no less than 20 µM.

What about the Kd [14, 21] of the same sequence?
Its Kd is no less than 20 µM.

And the Kd [15, 21]?
Its Kd is no less than 20 µM.

And the Kd [18, 21]?
Its Kd is no less than 20 µM.

What about the Kd [16, 21] of the same sequence?
The Kd was no less than 20 µM.

Which Kd [1, 22] does the source give for IPKRNRSIL here?
The Kd was no less than 20 µM.

What about the Kd [2, 22] of the same sequence?
The Kd was no less than 20 µM.

What about the Kd [3, 22] of the same sequence?
The Kd was no less than 20 µM.

And the Kd [4, 22]?
Its Kd is no less than 20 µM.

What about the Kd [5, 22] of the same sequence?
The Kd was no less than 20 µM.

And the Kd [6, 22]?
The Kd was no less than 20 µM.

What about the Kd [7, 22] of the same sequence?
Its Kd is no less than 20 µM.

And the Kd [8, 22]?
The Kd was no less than 20 µM.

And the Kd [9, 20]?
Its Kd is 0.268 µM.

And the Kd [10, 22]?
Its Kd is no less than 20 µM.

What about the Kd [11, 22] of the same sequence?
Its Kd is no less than 20 µM.

What about the Kd [13, 20] of the same sequence?
The Kd was 0.015 µM.

What about the Kd [14, 22] of the same sequence?
The Kd was no less than 20 µM.

And the Kd [15, 22]?
Its Kd is no less than 20 µM.

What about the Kd [18, 22] of the same sequence?
The Kd was no less than 20 µM.

And the Kd [16, 22]?
The Kd was no less than 20 µM.

Source: the Immune Epitope Database (IEDB)
